In paper PMC5996148:

Columns and labels:
[1] = target: La ribonucleoprotein domain family, member 1 (human) (UniProt Q6PKG0); experiment: protein microarray; details: 3'-biotin; Microarray: 20 mM Tris pH 7.5, 5 mM MgCl2, 100 mM KCl, 0.1% Tween-20, A/T-rich ON blocker mix; EMSA: 20 mM Tris-HCl pH 8, 100 mM KCl, 200 nM ON, 0-200 nM BRD3 …
[2] = target: T1, small trans-membrane and glycosylated protein (human) (UniProt O95332); experiment: protein microarray; details: 3'-biotin; Microarray: 20 mM Tris pH 7.5, 5 mM MgCl2, 100 mM KCl, 0.1% Tween-20, A/T-rich ON blocker mix; EMSA: 20 mM Tris-HCl pH 8, 100 mM KCl, 200 nM ON, 0-200 nM BRD3 …
T1 sequence: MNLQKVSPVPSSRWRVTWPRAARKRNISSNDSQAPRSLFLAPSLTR

Sequence	binding signal [1]	binding signal [2]
GGGAGGCTGAGGCAGG [G4-1 biotinylated (PQS2)]	4.49 Z-score	3.31 Z-score
GGGGACAGGGGTATGGGGAGGGG [G4-3 biotinylated (CtG)]	4.71 Z-score	4.59 Z-score
GGTGACAGGGGTATGGGGAGGGG [G4-2 biotinylated (Ct1)]	5.37 Z-score	5.81 Z-score
